Results reported in publication PMC5730154.

Biological target: T1, PamR (YdcH) (Bacillus subtilis 168) (UniProt P96625)
T1 sequence: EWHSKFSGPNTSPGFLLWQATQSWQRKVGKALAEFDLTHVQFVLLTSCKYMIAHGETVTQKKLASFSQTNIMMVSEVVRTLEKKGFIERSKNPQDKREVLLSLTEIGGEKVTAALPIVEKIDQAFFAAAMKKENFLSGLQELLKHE
Assay: EMSA
Conditions: 20 mM NaPO4 pH 7, 50 mM NaCl, 5 mM MgCl2, 10% glycerol, 0.1 ug/ul salmon sperm DNA, 10 min at room temperature; 4% native acrylamide gel

AATGTTCCTTCCGTTCCATTTTGAAATTGTCCTTTCAAAGAATCTGATGCAATACCCGTCTCCCATTGATCCATTGTTTCTGTTTCCTGATAACAGTTCCAGGTTTTCCCACATCCACATCAGCTATCGCTGTGTATTCATAATTCCACATCCCATAAGCTCCCAGAATGATAAGTTCACTTATTAATTATAATAAGCGCACTTATTAATAGTCAACCGCAAAAAAAAGAAGCCGGATGTCCAGCTTCTTTTTCTGGTTTTTTAGGACAGCTGTCCGAGAATATAGGTCAGGT (double strand) [PydcF wt 293 bp]
binding: binds

ACCTGACCTATATTCTCGGACAGCTGTCCTAAAAAACCAGAAAAAGAAGCTGGACATCCGGCTTCTTTTTTTTGCGGTTGACTATATTATTCTGCGCTTATTATAATTAATAAGTGAACTTATCATTCTGGGAGCTTATGGGATGTGGAATTATGAATACACAGCGATAGCTGATGTGGATGTGGGAAAACCTGGAACTGTTATCAGGAAACAGAAACAATGGATCAATGGGAGACGGGTATTGCATCAGATTCTTTGAAAGGACAATTTCAAAATGGAACGGAAGGAACATT (double strand) [PydcF IR1* mutant]
binding: binds more weakly
